The results in this text go back to IntAct's records for PubMed 20980406.

B1: Band 3 anion transport protein (Homo sapiens), P02730 (parent)
chain: MEELQDDYEDMMEENLEQEEYEDPDIPESQMEEPAAHDTEATATDYHTTSHPGTHKVYVELQELVMDEKNQELRWMEAARWVQLEENLGENGAWGRPHLSHLTFWSLLELRRVFTKGTVLLDLQETSLAGVANQLLDRFIFEDQIRPQDREELLRALLLKHSHAGELEALGGVKPAVLTRSGDPSQPLLPQHSSLETQLFCEQGDGGTEGHSPSGILEKIPPDSEATLVLVGRADFLEQPVLGFVRLQEAAELEAVELPVPIRFLFVLLGPEAPHIDYTQLGRAAATLMSERVFRIDAYMAQSRGELLHSLEGFLDCSLVLPPTDAPSEQALLSLVPVQRELLRRRYQSSPAKPDSSFYKGLDLNGGPDDPLQQTGQLFGGLVRDIRRRYPYYLSDITDAFSPQVLAAVIFIYFAALSPAITFGGLLGEKTRNQMGVSELLISTAVQGILFALLGAQPLLVVGFSGPLLVFEEAFFSFCETNGLEYIVGRVWIGFWLILLVVLVVAFEGSFLVRFISRYTQEIFSFLISLIFIYETFSKLIKIFQDHPLQKTYNYNVLMVPKPQGPLPNTALLSLVLMAGTFFFAMMLRKFKNSSYFPGKLRRVIGDFGVPISILIMVLVDFFIQDTYTQKLSVPDGFKVSNSSARGWVIHPLGLRSEFPIWMMFASALPALLVFILIFLESQITTLIVSKPERKMVKGSGFHLDLLLVVGMGGVAALFGMPWLSATTVRSVTHANALTVMGKASTPGAAAQIQEVKEQRISGLLVAVLVGLSILMEPILSRIPLAVLFGIFLYMGVTSLSGIQLFDRILLLFKPPKYHPDVPYVKRVKTWRMHLFTGIQIICLAVLWVVKSTPASLALPFVLILTVPLRRVLLPLIFRNVELQCLDADDAKATFDEEEGRDEYDEVAMPV

The variants in the experiment derive from B1. Conditions: with g3p_rabit GAPDH.
As to D902A;E903A, the “effect of a mutation on the interaction” value was “decreasing interaction strength”.
In the case of D905A;E906A, the “effect of a mutation on the interaction” value was “with no effect”.
For the variant Y904A, the “effect of a mutation on the interaction” value is on record as “decreasing interaction strength”.
